We go through four substances from publication PMC8755526.

Test [1] has as its target PLK1 Polo-Box domain (Flag- or Myc-tagged) (human). The experiment in a line: co-IP; lysates of cells co-expressing differently tagged PLK1 PBD incubated with increasing amounts of purified GST-Bora, then co-IP.
In test [2] the target is PLK1-T210E fused to CFP, YFP or mTurquoise 2 (human) (UniProt P53350). Description: FRET or BRET; FRET by confocal microscopy of fixed HEK293T cells co-transfected with YFP and mTurquoise constructs; 'FRET and co-localization analyzer' ImageJ plug-in.
Test [3] concerns the target endogenous PLK1 of HeLa-PLK1–3xMyc cells (human (endogenous in HeLa)) (UniProt P53350). Description: SEC; lysate of HeLa-PLK1–3xMyc cells synchronized in G2 with the CDK1 inhibitor RO3306; Superose 3.2/300, 50 mM Tris pH 7.5, 150 mM NaCl, 20 mM CHAPS, 1 mM DTT, 4 °C; fractions blotted. (In gel filtration, larger molecules generally elute earlier.)
Test [4] addresses full-length, wild-type PLK1 (Flag-, Myc- or V5-tagged) (human) (UniProt P53350). Description: cross-linking; BS3 (20:1 crosslinker-protein) added to lysates of HEK293T cells for 30 min, quenched; IPs with anti-V5 and anti-Myc; SDS-PAGE and western blot with PLK1- and Bora-specific antibodies. For orientation: A western blot detects proteins with antibodies after separation by electrophoresis.

With “PLK1 Polo-Box domain (Flag- or Myc-tagged) (domain or fragment)”, in test [1], the increase of co-precipitated PBD with purified GST-Bora added (lane 2) against none (lane 1) amounted to 60%.

With “PLK1-T210E fused to CFP, YFP or mTurquoise 2 (from UniProt P53350 1-603) (enzyme)”, the fold decrease of FRET emission against WT PLK1 in test [2] fell in the range of 6 to 8 fold.

For orientation: stoichiometry N means the number of molecules, sites or subunits per partner or assembly. In test [3], “endogenous PLK1 of HeLa-PLK1–3xMyc cells (from UniProt P53350 1-603) (enzyme)” had a stoichiometry N of 2.

“full-length, wild-type PLK1 (Flag-, Myc- or V5-tagged) (from UniProt P53350 1-603) (enzyme)” had a stoichiometry N in test [4] of 2.
